Measured values from paper PMC12107432 (Nucleic Acids Research, 2025).
Residue numbers refer to the chain shown, from its start. Names may count otherwise. “And” between values parts separate entries of the source, which are not always exact repeats. Equal entries are not always repeated. Where two headings read alike, the source gives them in different places.

Legend:
[1] = biological target: YhaM ortholog of Staphylococcus aureus (SaYhaM) (Staphylococcus aureus); assay: SEC
YhaM dimers = biological target: T1, YhaM dimers (Bacillus subtilis, UniProt O07521 1-314); assay: BLI
T1 sequence: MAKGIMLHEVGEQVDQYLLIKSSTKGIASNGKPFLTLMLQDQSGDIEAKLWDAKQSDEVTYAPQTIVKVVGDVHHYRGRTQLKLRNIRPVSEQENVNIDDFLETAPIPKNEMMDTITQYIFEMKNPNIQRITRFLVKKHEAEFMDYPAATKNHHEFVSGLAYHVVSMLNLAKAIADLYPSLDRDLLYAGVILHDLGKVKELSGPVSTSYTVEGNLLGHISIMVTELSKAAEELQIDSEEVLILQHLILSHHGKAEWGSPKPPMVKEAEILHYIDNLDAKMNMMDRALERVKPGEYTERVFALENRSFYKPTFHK

mass photometry [2] = biological target: the molecule itself; assay: mass photometry
mass photometry [3] = biological target: the molecule itself; assay: mass photometry; remark: listed apart in the source
mass photometry [4] = biological target: the molecule itself; assay: mass photometry; remark: listed apart in the source
YhaM H193A/D194A = biological target: T2, YhaM H193A/D194A (Bacillus subtilis, UniProt O07521 1-314, H193A;D194A); assay: BLI
T2 sequence: T1 sequence with H193A, D194A

YhaM (BsYhaM) = biological target: T3, YhaM (BsYhaM) (Bacillus subtilis (strain DK1042 / NCIB …, UniProt O07521 1-314)); assay: BLI
T3 sequence: T1 sequence

## YhaM ortholog of Staphylococcus aureus (SaYhaM) (enzyme)
[1]
  stoichiometry N: 6

B1: ssDNA loop (ssDNA)
DNA: TTTTTTTTTTTTTTTTTTTTTTCCCACAACAAGTCCAACGCAAACGGCCACCCCCCCAACAACAATTTTT
YhaM dimers
  binding result: binds

B2: YhaM W51A (Bacillus subtilis), OB domain variant (enzyme, UniProt O07521 1-314, looked up)
chain: T1 sequence with W51A
Mass photometry [2]
  stoichiometry N: 2
Mass photometry [3]
  stoichiometry N: 6

B3: YhaM H193A/D194A (Bacillus subtilis), HD motif variant (enzyme, UniProt O07521 1-314, looked up)
chain: T1 sequence with H193A, D194A
Mass photometry [4]
  stoichiometry N: 2
Mass photometry [3]
  stoichiometry N: 4 and 6

B4: YhaM Y76A (Bacillus subtilis), OB domain variant (enzyme, UniProt O07521 1-314, looked up)
chain: T1 sequence with Y76A
Mass photometry [3]
  stoichiometry N: 6

## GTTAATTAAGTTTTAACCTTTAAGCTGTAATAGGGAGTTT (ssDNA) [Bli DNA 40-nt]
YhaM H193A/D194A
  binding result: binds
YhaM (BsYhaM)
  binding result: binds
